The data set can be described thus: yeast display, Sf9 membrane polyspecificity reagent, FACS + sequencing; frameworks hold sequencing errors. Put shortly: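 Nanobodies came from a synthetic yeast display library in Saccharomyces cerevisiae BJ5465, induced with galactose for 36–48 hours and stained for 1 hour at 4 °C with 10% biotinylated, detergent-solubilized Sf9 membrane reagent. Cells were enriched on streptavidin microbeads and then FACS-sorted, with low and high (top ~1%) gates set on anti-HA fluorescence for expression and streptavidin fluorescence for reagent binding. Each polyreactivity label reflects the gate a clone came from. Genes were amplified by colony PCR, sequenced by MiSeq 2 × 250 and filtered by CDR length.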
Turning to “QVQLVESGGGLVQAGGSLRLSCAASGRIFVAYAMGWYRQAPGKERELVADIDYIDGSTYYADSVKGRFTISRDNAKNTVYLQMNSLKPEDTAVYYCAVDSLYYAGYYDYWGQGTQVTVSS”, the “polyreactivity (PSR sort gate)” value was “high polyreactivity”.

With “QVQLVESGGGLVQAGGSLRLSCAASGSIFYYNVMGWYRQAPGKERELVAAISQSGVRTYYADSVKGRFTISRDNAKNTVYLQMNSLKPEDTAVYYCAAKARRLYASSYDYWGQGTQVTVSS”, the “polyreactivity (PSR sort gate)” value was “high polyreactivity”.

On to “QVQLVESGGGLVQAGGSLRLSCAASGSIFLYNAMGWYRQAPGKERELVASITYGSGSTYYADSVKGRFTISRDNAKNTVYLQMNSLKPEDTAVYYCAATRYYRHGRYDSWGQGTQVTVSS”, for which the “polyreactivity (PSR sort gate)” value is “high polyreactivity”.

Regarding “QVQLVESGGGLVQAGGSLRLICAASGRIFVYNAKGSYSQAPGKDRELVATITSGGSTYYSDSVKGRFTISRDNAKNTVYFQMNSLKPEDTAVYYCAARRWYVHYFAYGYWGQGTQVTVSS”, the “polyreactivity (PSR sort gate)” value is on record as “low polyreactivity”.

As for “QVQLVESGGGLVQAGGSLRLSCAASGGILSDYAMGWYRQAPWKERELVAAITISGGRTNYADSVKGRFTISRDNAKNTVYLQMNSLKPEDTAVYYCAAGFYPYYYWGQGTQVTVSS”, the “polyreactivity (PSR sort gate)” value is recorded as “low polyreactivity”.

For “QVQLVESGGGLVQAGGSLPLSCAASGRTFPVYAMGWYRQAPGKERELVARINSGGRTTDADSVKGRFTISRDNAKNTVYLPKNSLKPEDSAVYYCNADSTYFRFDYWGQGTQVTVSS”, the “polyreactivity (PSR sort gate)” value is “high polyreactivity”.

On to “QVQLVESGGGLVQAGGSLRLSCAASGRIFGTNAMGWYRQAPRKERELVADITSGGSTNYADSVKGRFTISRDNAKNTVYLQMNSLKPEDTAVYYCAADVIGDLRWYRDEYWGQVTQVTVSS”, for which the “polyreactivity (PSR sort gate)” value was “low polyreactivity”.

As for “QVQLVESGGCLVQAGGSLRLTCAASGYIFANNARGWYRQAPGTERELVAAISSSGGRTYYADSVKGRFTISRDNAKNTVYLQMNSLKPEDTAVYYCAAESVDNIYYGFDYWGQGTQVTVSS”, the “polyreactivity (PSR sort gate)” value is “high polyreactivity”.

For “QVQLVESGGGLVQEGGSLRLSCADSGSTFHYYTMGWYRQAPGKERELVAAISWRGTSTYYADSVKGRFTISRDNAKNTVYLQMNSLKPEDTAVYYCAVRSSPGAGYYYWGQGTQVTVSS”, the “polyreactivity (PSR sort gate)” value is reported as “high polyreactivity”.

With “QVQLVESGGGLVQAGGSLRLSCAASGYSFYKYAMGWYRQAPGKERELVAAISYSGGSTYYADSVKGRFTISRDNAKNTVYLQMNSLKPEDTAVYYCAAVGATKGLRYGYWGQGTQVTVSS”, the “polyreactivity (PSR sort gate)” value is reported as “low polyreactivity”.

On to “QVQLVESVGGLVQAGGSLRLRCAASGSTFYKNAMGRYRQAPGIERELVAGISRRGGRTYYADSVKGRFTISRDNAKNTVYLQMNSLKPEDTAVFYCNTGHEVDEYDYWGQGTQVTVSS”, for which the “polyreactivity (PSR sort gate)” value is “low polyreactivity”.

Take “QVQLVESGGGLVQAGGSLRLSCAASGFTFRYYVMGWYRQAPGKERELVARISTGASTHYADSVKGRFTISRDNAKNSVYLQKNSLKPEDTAVYYCASDHPAFGPGYSFDYWGLGTQVTVSS”: the “polyreactivity (PSR sort gate)” value is recorded as “low polyreactivity”.

“QVQLVESGGGLVQAGGSLRLSCAASGIIVDYYAMGWYRQAPGKERELVATITSGGSTNYADSVKGRFTISRDNAKNTVYLPMNSVKPEDTAVYYCAARTYWFPDIYPGLGMDYWGQGTQVTVSS”: the “polyreactivity (PSR sort gate)” value is on record as “low polyreactivity”.

Regarding “QVQLVESGGGLVQAGGSLRLSCAASGFTFYRYAMGWYRQAPGKERELVAAISTSGGSTYYADSVKGRFTISRDNAKNTVYLQMNSLKPEDTAVYYCAAELLVYYWGYYYELLDYWGQGTQVSVSS”, the “polyreactivity (PSR sort gate)” value was “high polyreactivity”.

For the sequence “QVQLVESGGGLVQAGGSLRLSCAASGYTFPKYAMGWYRQAPGKERELVAAITKRGGRTYSADSVKGRFTISRDNAKNTVYLQMNSLKPEDTAVYYCAVDLDGPEYSQVHYDYWGQGTQVTVSS”, the “polyreactivity (PSR sort gate)” value is listed as “high polyreactivity”.

As to “QVQLVESGGGLVQAGGSLRLSCAASGSIYRYAMGWYRQAPGKERELVASISRRGGSTYYADSVKGRFTISRDNAKNTVYLQMNSLKPEDTAVYSCNAYGYSFGYDYWGQGTQVTVSS”, the “polyreactivity (PSR sort gate)” value is on record as “high polyreactivity”.

For the origin of these results see the nanobody polyreactivity screen of Harvey et al. (2022).
